The values below come from patent publication US20230272088A1 (SYNTHEKINE, published 2023).

Assay [1] concerns the target T1, extracellular domain of hIFNGR1 (human, UniProt P15260 18-245, conjugated to Alexa647 (site not stated)).
T1 construct: UniProt P15260 residues 18-245; also called hIFNGR1-ECD; human IFNGR1 ECD
T1 sequence: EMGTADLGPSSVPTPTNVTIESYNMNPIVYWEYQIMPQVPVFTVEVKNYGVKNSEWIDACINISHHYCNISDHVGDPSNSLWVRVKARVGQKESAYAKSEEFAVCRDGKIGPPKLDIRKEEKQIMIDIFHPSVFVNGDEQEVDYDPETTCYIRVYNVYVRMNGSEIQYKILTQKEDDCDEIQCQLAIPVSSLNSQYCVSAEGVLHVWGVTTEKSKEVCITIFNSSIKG
As to the kind of experiment: flow cytometry, yeast-displayed VHH, 100 nM Alexa647-conjugated antigen. On the procedure: (§1) Binding of individual VHH to human and murine antigen was tested by flow cytometry. Briefly, 2E5 yeast cells expressing a single sdAb clone were added to each well of a 96 well plate. The first plate was incubated with 100 nM of human antigen conjugated to Alexa647 whereas the second plate was incubated with 100 nM of murine antigen conjugated to Alexa647. Yeast cells were washed 3 times with PBS containing 1% bovine serum albumin. Yeast cells were analyzed using flow cytometry and clones showing a mean fluorescence intensity of greater than 1000 were considered as binding molecules. Specificity of sdAbs was confirmed by incubating yeast cells with a irrelevant protein conjugated to Alexa647. Positive clones were sequenced, and sequences analyzed to identify unique clonotypes.

The target of assay [2] is T2, extracellular domain of mIFNGR1 (mouse, UniProt P15261 26-254, conjugated to Alexa647 (site not stated)).
T2 construct: Origin and tags of the murine antigen are not described; UniProt P15261 residues 26-254; also called mIFNGR1-ECD; murine IFNGR1 ECD
T2 sequence: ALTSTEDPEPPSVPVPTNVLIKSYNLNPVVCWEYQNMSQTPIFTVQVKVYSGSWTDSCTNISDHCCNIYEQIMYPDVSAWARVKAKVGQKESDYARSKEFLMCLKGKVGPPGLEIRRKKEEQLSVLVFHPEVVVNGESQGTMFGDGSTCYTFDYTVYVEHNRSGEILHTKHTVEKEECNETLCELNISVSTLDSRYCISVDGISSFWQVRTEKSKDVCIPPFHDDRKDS
As to the kind of experiment: flow cytometry.

Assay [3] concerns the target T3, extracellular domain of hIFNGR2 (human, UniProt P38484 28-247, conjugated to Alexa647 (site not stated)).
T3 construct: also called hIFNGR2-ECD; human IFNGR2 ECD
T3 sequence: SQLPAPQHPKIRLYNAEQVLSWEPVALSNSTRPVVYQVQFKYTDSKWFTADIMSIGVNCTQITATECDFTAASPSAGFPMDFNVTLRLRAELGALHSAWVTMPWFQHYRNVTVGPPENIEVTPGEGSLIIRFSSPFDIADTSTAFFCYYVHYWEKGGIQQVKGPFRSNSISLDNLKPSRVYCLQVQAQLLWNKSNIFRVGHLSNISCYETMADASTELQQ
The experiment in a line: flow cytometry.

Assay [4] has as its target T2, extracellular domain of mIFNGR1. The experiment in a line: flow cytometry, yeast-displayed VHH, 100 nM Alexa647-conjugated antigen. On the procedure: as §1
The target in assay [5] is T1, extracellular domain of hIFNGR1. As to the kind of experiment: flow cytometry.

B1: DR907 (VHH)
VHH: EVQLVESGGGLVQAGGSLRLSCAASGRTFSNYAMGWFRQAPGNEREFVAAINWNIGSTYYADSVKGRFTISRDNAKNTVYLQMNSLKPEDTAVYYCGAVWPTGRLRVDSEYDYWGQGTQVTVSS
notes: also called anti-IFNGR1 sdAb VHH DR907
Consider B1, for which the binding result in assay [1] and in assay [2] was “binds” each time.

B2: DR958 (VHH)
VHH: QVQLVESGGGLVQAGDSLTLSCTASGRTFSGYNMGWFRQAPGKERDFVAAINWIGGATYYADSVKGRFTISRDNAKNTVYLQMNSLKPEDTAVYYCHRYSEKFYSGKDYYTRDYDYWGQGTQVTVSS
notes: also called anti-IFNGR2 sdAb VHH DR958
Regarding B2, in assay [3], the binding result was “binds”.

B3: DR903 (VHH)
VHH: EVQLVESGGGLVQAGGSLRLSCAASGRIASDYTRGWFRQAPGKEREFVAAIIRSVGDSYYADSVKGRFTISIDNAENTVYLQMNSLKPEDTAVYYCAVGGHLYYGSRWRYPASYDYWGQGTQVTVSS
notes: also called anti-IFNGR1 sdAb VHH DR903
B3: the binding result in assay [4] and in assay [5] was “binds” throughout.

B4: DR953 (VHH)
VHH: QVQLVESGGGLVQAGDSLRLSCAASGPTFSTYAMAWFRQAPGKEREFVAAITQSGRTTYYEDSVKGRFTISKDNAKNTLYLQMNSLQPEDTAVYYCAARDLWSDSPDDWRIYSFWGQGTQVTVSS
notes: also called anti-IFNGR2 sdAb VHH DR953
In the case of B4, the binding result in assay [3] is “binds”.

B5: DR908 (VHH)
VHH: EVQLVESGGGLVQAGGSLRVTCAASGRTFTSLAMGWFRQAPGKEREFVAAISRSGGSTDYADSVKGRFFISRDNAKSTLYLQMSSLKPEDTAVYYCAARDYSTLQYYNEYEYSDWGQGTQVTVSS
notes: also called anti-IFNGR1 sdAb VHH DR908
In the case of B5, the binding result in assay [5] and in assay [2] was “binds” throughout.

B6: DR956 (VHH)
VHH: EVQLVESGGGLVQAGGSLRLSCAASGRTFSSLAMAWFRQAPGKEREFVAATTILGGSADYGDPVKGRFTISRDNAKNTVYLQMNSLKPEDTAVYYCTGRRPAPSDNYWSPASYAYWGQGTQVTVSS
notes: also called anti-IFNGR2 sdAb VHH DR956
Regarding B6, the binding result in assay [3] is “binds”.
